Measured values from PMC8024055 (Nature, 2020).
Where a chain is given by its changes, count along the chain named. In names and notes the source's numbering stands. One block for each binder: values may come before it.

Key:
[1] = molecular target: the molecule itself; test: SEC
[2] = molecular target: T1, His-MBP-FBXL17^310-701/Skp1 complex ( | human, UniProt Q9UF56;P63208); test: FRET or BRET
[3] = molecular target: the molecule itself; test: FRET or BRET
[4] = molecular target: T1, His-MBP-FBXL17^310-701/Skp1 complex; test: pull-down
[5] = molecular target: FBXL17^310-701 (tags removed, in the structures) (UniProt Q9UF56 310-701); test: crystal structure
Chain of FBXL17^310-701 (tags removed, in the structures) (Q9UF56 310-701): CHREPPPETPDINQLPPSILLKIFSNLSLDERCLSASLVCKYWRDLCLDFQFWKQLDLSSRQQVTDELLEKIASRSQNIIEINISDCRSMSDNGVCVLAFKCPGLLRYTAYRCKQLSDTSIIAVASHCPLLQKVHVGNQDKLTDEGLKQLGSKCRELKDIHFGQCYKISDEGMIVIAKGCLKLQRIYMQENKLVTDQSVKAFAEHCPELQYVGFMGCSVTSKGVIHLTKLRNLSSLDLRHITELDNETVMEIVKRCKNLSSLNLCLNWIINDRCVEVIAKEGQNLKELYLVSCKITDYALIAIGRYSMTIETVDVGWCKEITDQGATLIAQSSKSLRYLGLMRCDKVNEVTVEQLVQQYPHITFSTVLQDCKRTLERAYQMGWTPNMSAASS

T1 sequence (Q9UF56 310-701, chain 1 of 2): as the sequence (Q9UF56 310-701) above
T1 sequence (P63208 whole entry, chain 2 of 2): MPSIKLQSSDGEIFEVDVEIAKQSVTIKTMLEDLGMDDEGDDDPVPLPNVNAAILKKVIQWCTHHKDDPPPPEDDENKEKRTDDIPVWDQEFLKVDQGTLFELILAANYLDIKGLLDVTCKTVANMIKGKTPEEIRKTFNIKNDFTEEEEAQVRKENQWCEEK

B1: KEAP1^48-180 S172A (recombinant BTB domain, called wild type) (domain or fragment)
chain: GNRTFSYTLEDHTKQAFGIMNELRLSQQLCDVTLQVKYQDAPAAQFMAHKVVLASSSPVFKAMFTNGLREQGMEVVSIEGIHPKVMERLIEFAYTASISMGEKCVLHVMNGAVMYQIDSVVRACADFLVQQLD
stoichiometry N [1]: 2

B3: KEAP1^48-180 S172A/V98A (recombinant BTB domain) (domain or fragment)
chain: B1 chain with V51A
stoichiometry N [1]: 2

Second part, led by results:

binding result [2]: binds
B2: KEAP1^48-180 S172A/F64A/R116C labeled with Alexa Fluor 555 or Alexa Fluor 647 (domain or fragment)
chain: B1 chain with F17A, R69C
binding result [3]: binds

binding result [4]: binds
binding result [5]: binds
B4: KEAP1^48-180 S172A/F64A (recombinant BTB domain) (domain or fragment)
chain: B1 chain with F17A
stoichiometry N [1]: 2
